As a reminder, the Kd is the free concentration of one partner at which half of the binding sites on the other are occupied at equilibrium, for simple one-to-one binding.

The target in experiment [1] is T1, 重组人VEGF (recombinant human VEGF, VEGF-A) (human, UniProt P15692-4 27-191, limits assumed). The experiment can be described thus: Friguet method (solution equilibrium with human VEGF, ELISA of free antibody on immobilised VEGF), Fab. On the technique in general: In an ELISA, binding on a coated surface is turned into a signal by an enzyme label.
The target of experiment [2] is T1, 重组人VEGF (recombinant human VEGF, VEGF-A). The experiment can be described thus: Friguet method, full-length antibody.

T1 sequence (P15692 other isoform, or with tags, fused parts or gaps limits assumed): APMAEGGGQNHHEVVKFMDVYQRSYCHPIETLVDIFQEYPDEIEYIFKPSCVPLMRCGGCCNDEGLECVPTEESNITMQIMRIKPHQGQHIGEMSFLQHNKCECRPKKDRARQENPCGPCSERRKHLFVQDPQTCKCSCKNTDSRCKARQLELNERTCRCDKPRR

B1: 6B2 Fab (候选分子6B2) (Fab, V domains shown)
VH: EVQLVQSGGGVVQPRRSLRLSCAASGFDIYDDDIHWVRQAPGKGLEWVYIAPSYGYTRYADSVKGRFTVSRDNSKNTLYLQMNSLRAEDTSVYYCARSSDASYSYSAMDYWGQGTLVTVSS
VL: DIQMTQSPSSVSASIGDRVTITCRASQDASYSSAWYQQRPGKAPELLIYSAASYESGVPSRFSGSGSGTDFTLTISSLQAEDFATYYCQSSASPATFGQGTRLEIKR
As to B1, the Kd in experiment [1] worked out at 276 pM.

B2: 全长6B2 (F6B2), full-length antibody (antibody, V domains shown)
VH: B1 VH
VL: B1 VL
notes: expressed in DG44 cells; also called 6B2全长抗体分子
Regarding B2, the equilibrium dissociation constant (Kd) in experiment [2] amounted to 22 pM.

B3: 3D7 Fab (原型分子3D7) (Fab, V domains shown)
VH: EVQLVESGGGLVQPGGSLRLSCAASGFNIKDTYIHWVRQAPGKGLEWVAYIAPSYGYTRYADSVKGRFTISADTSKNTAYLQMNSLRAEDTAVYYCSRSSDASYSYSAWGQGTLVTVSS
VL: DIVMTQSPSSLSASVGDRVTITCRASQFVGFYIHWYQQKPGKAPKLLIYAASERATGVPSRFSGSRSGTDFTLTISSLQPEDFATYYCQQWLNNPFTFGQGTKVEIKR
notes: Tested as a Fab (phage supernatant in the screen); also called 原型抗体3D7
With B3, the Kd in experiment [1] came out at 1560 pM.
